From patent WO2018039626A1 (dated 2018)

B1: sdA1 (human single domain antibody targeting CD16A) (VHH)
VHH: EVQLVESGGGLVQPGGSLRLSCAASGFTFSNYGMSWVRQAPGKGLEWIGSIYYSGGSTNYNPSLKGSLVISRDNSKNTLYLQMNSLAEDTATYYCARESIDYWGQGTLVTVSS
notes: Human VH single domain (VH3-23 scaffold), not camelid; Purified by Ni-NTA and detected with anti-Flag-HRP, so His and Flag tags were present; also called sdAl; D6
B2: sdA2 (human single domain antibody targeting CD16A) (VHH)
VHH: EVQLVESGGGLVQPGGSLRLSCAASGFTFSSYGMSWVRQAPGKGLEWIGEVNHSGGSTNYNPSLKGSFVISRDNSKNTLYLQMNSLAEDTAVYYCARVGSFDFWGQGTLVTVSS
notes: Human VH single domain; His and Flag tags are implied (Ni-NTA, anti-Flag-HRP); also called E11; El 1

Target: T1, recombinant CD16A ectodomain (human, UniProt P08637 17-208)
T1 construct: extracellular domain
Assay: ELISA, CD16A ectodomain coated at 50 ng/well, sdA detected with anti-Flag-HRP

T1 sequence (P08637 17-208): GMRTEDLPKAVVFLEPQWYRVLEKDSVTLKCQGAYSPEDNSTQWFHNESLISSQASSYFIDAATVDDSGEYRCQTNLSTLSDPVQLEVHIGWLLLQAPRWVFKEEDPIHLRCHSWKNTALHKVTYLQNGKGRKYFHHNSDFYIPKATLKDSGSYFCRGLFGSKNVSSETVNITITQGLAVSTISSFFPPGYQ

Row | Binder | EC50 [nM]
1 | B1 | 0.1
2 | B2 | 0.3
